According to patent publication US20240400698A1, “ANTI-CHEMOKIN LIKE RECEPTOR 1 ANTIBODIES AND THEIR THERAPEUTIC APPLICATIONS” (OSE IMMUNOTHERAPEUTICS, priority 2018, published 2024):

Legend:
Mice dendritic cells = experiment: Maturation and differentiation of mice bone marrow derived dendritic cells, activation markers and viability by FACS; type: cell-based
Procedure: FIG. 1. Effect of the anti-CMKLR1 variants 1G1, 2G1, 3G1 and 4G1 chimeric antibodies on the DCs maturation and differentiation. Mice dendritic cells were incubated during maturation phase (24 h or 48 h) followed by a differentiation phase with excipient or RvE1 or anti-CMKLR1 antibodies variants (mutations on positions 1 and 2 of SEQ ID No. 8, corresponding to the VH-CDR3: 1G1 (LL), 2G1 (LI), 3G1 (IL) or 4G1 (II) or isotype controls (hIgG1 or mIgG)). Cells were then stained for FACS analysis with cell marker antibodies: A. CD80-PE; B. CD86-FITC; C. CD103-PerCPCy5.5; D. I/Ab-APC. Mean of Fluorescence was determined in each condition. E and F represent the viability of the cells measured by FACS using LIVE/DEAD® kit from Life Technologies in each condition after 24 or 48 hours of maturation respectively.
FIG. 17. Study of the myeloid cell activation markers after CMKLR1 pathway activation. Dendritic cells incubated in excipient, RvE1, 2G1 or isotype control (hIgG1) were then stained for FACS analysis with marker antibodies: A. CD80-PE. B. CD86-FITC. C. CD103-PerCPCy5.5. D. CD40-PeCy7. E. I/Ab-APC. Mean of Fluorescence was determined in each condition.
Bone marrow cells were harvested and cultured in RPMI medium supplemented with 10% FBS, glutamine and antibiotics and the dendritic cell differentiation was induced by GM-CSF at 20 ng/ml for 7 days. Then, immature dendritic cells (iDC) were collected and cultured for 24 hours with LPS (100 ng/ml) to induce the maturation from iDC to mDC. Treatments were added during differentiation and maturation at 2 μg/ml.
Dendritic cells were resuspended in PBS-FBS-EDTA and incubated with live and dead (LIVE/DEAD® Fixable Dead Cell Stains Yellow-Life Technologies) for 30 minutes on ice. Staining of CD11c-BV711, CD11b-APCCy7, I/Ab-APC, CD103-PerCPCy5.5, CCR7-V450, CD40-PeCy7, CD80-PE, CD86-FITC (all provided by BD Pharmingen) were performed.

[1] = system: NOD female mice, spontaneous type 1 diabetes; experiment: Type 1 diabetes NOD model; type: in vivo; conditions: 20 μg/injection i.p. three times a week for 2 weeks
Source text: FIG. 5. […] Mice develop spontaneous diabetes. […] A. Percentage of survival, B. individual representation of blood glucose concentration in mg/dL. C. pooled representation of blood glucose concentration in mg/dL.
8 weeks-old NOD female mice were obtained from Charles River laboratory. These mice develop a spontaneous type 1 diabetes at age between 12 to 20 weeks. The diabetes initiation can be measured by the high glycaemia.

[2] = biological target: T1, CMKLR1 EL3 loop (SEQ ID No: 18) (Homo sapiens, UniProt Q99788); experiment: ELISA binding on CMKLR1 peptide; conditions: OD at 450 nm, FIG. 12, vs isotype control
T1 sequence (Q99788 275-307 limits assumed): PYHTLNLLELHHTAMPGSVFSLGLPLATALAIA
Procedure: FIG. 12. Binding analysis of the anti-CMKLR1 antibody on a CMKLR1 peptide by ELISA. The binding of the 2G1 antibody ( ) on the CMKLR1 EL3 loop (SEQ ID No: 18) was compared to the isotype control antibody (3G8) (x) by measuring the OD at 450 nm by ELISA.
CMKLR1 peptide (273NH2-[…]-COOH305) (SEQ ID No: 18) (5 μg/ml) was coated in borate buffer overnight. Saturation was performed with PBS-Tween 0.1%-Gelatin 0.25% for 2 hours at 37° C. Then, 2G1 or hIgG1 antibodies were added at different concentrations for 2 hours at 37° C. […] The colorimetric reaction was read with TECAN.

[3] = system: mice M1 or M2 macrophages; experiment: Cytokine secretion by mice M1 or M2 macrophages (ELISA), FIG. 15; type: cell-based; conditions: ELISA
Procedure: FIG. 15. Study of the inflammatory cytokine secretion by human macrophages during CMKLR1 activation. After differentiation of human macrophages M1 or M2, cells were incubated in presence of medium, isotype control, anti-CMKLR1 antibodies (H6 and BZ194), C15 peptides, 2G1 anti-CMKLR1 antibody or RvE1. Secretion of IL10, CCL17 and IL12p40 were assessed by ELISA. Cytokines secretion is measured in the supernatant by using an ELISA kit from BD. Supernatant were diluted at 1/10 for IL10 cytokines, 1/50 for CCL17 cytokines and 1/100 for IL12p40 cytokines. A. IL10 cytokine secretion by M2 cells. B. CCL17 cytokine secretion by M2 cells. C. represents IL 12 cytokine secretion by M1 cells.
Bone marrow cells were harvested and cultured in the RPMI medium supplemented with 10% FBS, glutamine and antibiotics containing macrophages colony-stimulating factor (M-CSF) at 100 ng/ml for 5 days inducing the macrophages differentiation. The macrophages were harvested and cultured for 2 days with either IFNg (20 ng/ml) and LPS (100 ng/ml) inducing the M1 polarization or with IL-4 (20 ng/ml) inducing the M2 polarization. Treatments were added during macrophage polarization at 2 μg/ml.
After differentiation of mice M1 or M2 as explain above, cells were incubated in presence of medium, isotype control, anti-CMKLR1 antibodies: clones H6 and BZ194, C15 peptides, 2G1 the anti-CMKLR1 antibody of interest or RvE1 were used. Then the secretion of IL10, CCL17 and IL12p40 was assessed by ELISA. Cytokines secretion was measured in the supernatant using an ELISA kit from BD. Supernatants were diluted at 1/10 for IL10 cytokines, 1/50 for CCL17 cytokines and 1/100 for IL12p40 cytokines.
Cytokines secretion was detected by ELISA according to the BD manufacturer instructions. Briefly, supernatants were diluted in the appropriate buffer and incubated for 2 hours after overnight coating with capture antibody and saturation. […] TMB supplied by BD Bioscience was used as substrate and colorimetric reaction was read with TECAN.

B1: 2G1: chimeric anti-CMKLR1 antibody, murine variable regions (SEQ ID No: 10 and 17), human IgG1 constant regions; VH-CDR3 variant LI (antibody, V domains shown)
VH: METDTLLLWVLLLWVPGSTGDEVQLVASGGGLVQPGGSLKLSCAASGFTFSSYGMSWVRQTPDRRLELVATINRYGGSTYYPDSVKGRFTISRDNAKNTLYLQMSSLKSEDTAMYYCPRLIYYGNEGDSWGQGTTLTVSS
VL: METDTLLLWVLLLWVPGSTGDQIVLTQSPAIMSASPGEKVTMTCSASSSVSFMHWYQQKSGTSPKRWIYDTTKLTSGVPARFSGSGSGTFYSLTISSMEAEDAATYYCQQWNSKPPLTFGPGTKLELKR
modifications: human IgG1 constant regions
notes: VH-CDR3 variant LI
Mice dendritic cells; FIG. 1, FACS, compared with C7 antibody
  level of detection of DCs expressing CD103 and IAb: lower than DCs cells treated with C7 antibody
Mice dendritic cells; FIG. 1, mice dendritic cells, maturation 24 h or 48 h
  DCs activation and/or maturation towards a pro-inflammatory pathway: inhibit DCs activation and/or maturation in a stronger manner than other synthetized antibodies (3G1 and 4G1)
Mice dendritic cells; FIG. 17, FACS, compared to the excipient or isotype control
  expression of CD80, CD86, CD103, CD40 and IAb (DC activation markers): strong decrease
Mice dendritic cells; FIGS. 1E and 1F, LIVE/DEAD kit, after 24 or 48 hours of maturation, compared with other antibodies, C7 or Resolvin E1
  viability of cells: enhanced
[1]; FIG. 5A
  survival percentage: better survival percentage
[1]; FIG. 5B-C
  glycaemia (blood glucose concentration): almost normal glycaemia
[2]
  binding to the polypeptide forming the loop EL3 of CMKLR1: able to bind the polypeptide forming the loop EL3 of CMKLR1
[3]; FIG. 15A
  IL10 secretion by M2 type macrophages: induced
[3]; FIG. 15B
  CCL17 secretion by M2 type macrophages: induced
[3]; FIG. 15C
  pro-inflammatory cytokines (IL12) from M1 type macrophages: decreased
